Measurements taken from patent publication US20230203142A1 (published 2023).

T1: NDPK-A peptide 14 (human)
T1 peptide: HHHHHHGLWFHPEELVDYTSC

T2: NDPK-A peptide 9 (human)
T2 peptide: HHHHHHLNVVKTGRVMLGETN

T3: NDPK-A peptide 1 (human)
T3 peptide: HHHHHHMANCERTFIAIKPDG

T4: NDPK-A peptide 15 (human)
T4 peptide: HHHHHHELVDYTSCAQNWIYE

T5: NDPK-A peptide 5 (human)
T5 peptide: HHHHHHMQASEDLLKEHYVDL

T6: NDPK-A peptide 12 (human)
T6 peptide: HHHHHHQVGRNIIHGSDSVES

T7: NDPK-A peptide 13 (human)
T7 peptide: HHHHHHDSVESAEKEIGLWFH

T8: NDPK-A peptide 10 (human)
T8 peptide: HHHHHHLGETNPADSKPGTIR

T9: NDPK-A peptide 4 (human)
T9 peptide: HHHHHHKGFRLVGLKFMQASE

T10: NDPK-A peptide 6 (human)
T10 peptide: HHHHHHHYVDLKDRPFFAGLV

T11: NDPK-A peptide 11 (human)
T11 peptide: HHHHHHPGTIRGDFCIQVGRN

T12: NDPK-A peptide 7 (human)
T12 peptide: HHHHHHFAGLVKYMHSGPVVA

T13: NDPK-A peptide 3 (human)
T13 peptide: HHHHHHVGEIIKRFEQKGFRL

T14: NDPK-A peptide 2 (human)
T14 peptide: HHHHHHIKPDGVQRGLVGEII

T15: NDPK-A peptide 8 (human)
T15 peptide: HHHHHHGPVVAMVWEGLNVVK

B1: recombinant human FABP4 (fatty acid binding protein 4) (other)
chain: CDAFVGTWKLVSSENFDDYMKEVGVGFATRKVAGMAKPNMIISVNGDVITIKSESTFKNTEISFILGQEFDEVTADDRKVKSTITLDGGVLVHVQKWDGKSTTIKRKREDDKLVVECVMKGVTSTRVYERA
notes: Recombinant human FABP4 produced in-house; also called aP2; hormonal FABP4
B2: CA33 (a-Ab) monoclonal antibody (antibody)
heavy: QSVEESGGRLVTPGTPLTLTCTVSGFSLSTYYMSWVRQAPGKGLEWIGIIYPSGSTYCASWAKGRFTISKASTTVDLKITSPTTEDTATYFCARPDNDGTSGYLSGFGLWGQGLVTVSSAKTTPPSVYPLAPGSAAQTNSMVTLGCLVKGYFPEPVTVTWNSGSLSSGVHTFPAVLQSDLYTLSSSVTVPSSTWPSETVTCNVAHPASSTKVDKKIVPRDC
light: DVVMTQTPASVSEPVGGTVTIKCGASEDISRYLVWYQQKPGQPPKRLIYKASTLASGVPSRFKGSGSGTDFTLTISDLECDDAATYYCQCTYGTYAGSFFYSFGGGTEVVVERTDAAPTVSIFPPSSEQLTSGGASVVCFLNNFYPKDINVKWKIDGSERQNGVLNSWTDQDSKDCTYSMSSTLTLTKDEYERHNSYTCEATHKTSTSPIVKSFNRNEC
notes: Described as a monoclonal antibody; also called active antibody

Assays:
[1] = molecular target: T16, human NDPK-A (nucleoside diphosphate kinase A), full-length recombinant (human, UniProt P15531 2-152); assay: MST, NDPK labelled, FABP4 unlabelled
T16 construct: Bought protein (Acro Biosystems NM1-H5147); It was fluorescently labelled (lysine, cysteine or His-tag dye) in MST; also called nm23
Experimental: (§1) Human NDPK-A (Acro Biosystems, product number NM1-H5147) was prepared in PBS to a stock concentration of 0.4 mg/ml. Human ADK (Novus Biologicals, product number NBP1-44382 or R&D Systems, product number 8024-AK-025) was purchased at a stock concentration of 0.5 mg/ml and buffer exchanged into PBS. Protein concentration used for labeling was 20 uM. Experiments were conducted independently with each of NDPK and ADK labeled with each kit (i.e., experiments were performed with lysine-labeled, cysteine-labeled, and His-labeled versions of each protein to confirm the site of labeling was not influencing detected interaction). […] Concentration of labeled proteins ranged from 12 nM to 20 nM, as determined by MST quantification to obtain a fluorescence intensity of ˜350 from each capillary tube. […]
(§2) To further confirm the formation of the proposed complex, GST-tagged NDPK (GST-NDPK) was generated and immunoprecipitation experiments were performed to investigate the interaction of each proposed component with NDPK. Interaction between all three components of the proposed complex, as well as with the complex and a-Ab (FIG. 4M) were readily identified.

[2] = molecular target: T17, human ADK (adenosine kinase), recombinant (human, UniProt P55263 2-362); assay: MST, one-to-one recombinant proteins, ADK labelled
T17 construct: Bought protein (Novus Biologicals NBP1-44382 or R&D Systems 8024-AK-025); It was fluorescently labelled in MST
Experimental: Additionally, one-to-one recombinant protein interaction assays were performed using Microscale Thermophoresis (MST) to independently validate the interactions between each of the proposed complex components. MST is a technology for the interaction analysis of biomolecules. MST is the directed movement of particles in a microscopic temperature gradient. Any change of the hydration shell of biomolecules due to changes in their structure/conformation results in a relative change of the movement along the temperature gradient and is used to determine binding affinities. MST allows measurement of interactions directly in solution without the need of immobilization to a surface (immobilization-free technology).
To perform this technique, proteins were desalted and buffer exchanged into PBS prior to labeling. […] Experiments were conducted independently with each of NDPK and ADK labeled with each kit (i.e., experiments were performed with lysine-labeled, cysteine-labeled, and His-labeled versions of each protein to confirm the site of labeling was not influencing detected interaction). […] Concentration of labeled proteins ranged from 12 nM to 20 nM, as determined by MST quantification to obtain a fluorescence intensity of ˜350 from each capillary tube. […]

[3] = molecular target: T16, human NDPK-A (nucleoside diphosphate …); assay: MST, NDPK labelled, antibody unlabelled
Experimental: as §1, §2

[4] = molecular target: T16, human NDPK-A (nucleoside diphosphate …); assay: MST, His-tagged full-length NDPK-A; column head prints 'Binding Affinity (Ka)'
NDPK-A peptide 14 = molecular target: T1, NDPK-A peptide 14; assay: MST, His-tag-labelled peptide against a-Ab
NDPK-A peptide 9 = molecular target: T2, NDPK-A peptide 9; assay: MST, His-tag-labelled peptide against a-Ab
NDPK-A peptide 1 = molecular target: T3, NDPK-A peptide 1; assay: MST, His-tag-labelled peptide against a-Ab
NDPK-A peptide 15 = molecular target: T4, NDPK-A peptide 15; assay: MST, His-tag-labelled peptide against a-Ab
NDPK-A peptide 5 = molecular target: T5, NDPK-A peptide 5; assay: MST, His-tag-labelled peptide against a-Ab
NDPK-A peptide 12 = molecular target: T6, NDPK-A peptide 12; assay: MST, His-tag-labelled peptide against a-Ab
NDPK-A peptide 13 = molecular target: T7, NDPK-A peptide 13; assay: MST, His-tag-labelled peptide against a-Ab
NDPK-A peptide 10 = molecular target: T8, NDPK-A peptide 10; assay: MST, His-tag-labelled peptide against a-Ab
NDPK-A peptide 4 = molecular target: T9, NDPK-A peptide 4; assay: MST, His-tag-labelled peptide against a-Ab
NDPK-A peptide 6 = molecular target: T10, NDPK-A peptide 6; assay: MST, His-tag-labelled peptide against a-Ab
NDPK-A peptide 11 = molecular target: T11, NDPK-A peptide 11; assay: MST, His-tag-labelled peptide against a-Ab
NDPK-A peptide 7 = molecular target: T12, NDPK-A peptide 7; assay: MST, His-tag-labelled peptide against a-Ab
[5] = molecular target: T17, human ADK (adenosine kinase), …; assay: MST, ADK labelled, antibody unlabelled
Experimental: To perform this technique, proteins were desalted and buffer exchanged into PBS prior to labeling. Desalting was performed using Zeba Spin Desalting Columns (Thermo Scientific, product number 89882, 0.5 ml volume) in a volume of 0.1 ml according to the manufacturer's instructions. Human NDPK-A (Acro Biosystems, product number NM1-H5147) was prepared in PBS to a stock concentration of 0.4 mg/ml. Human ADK (Novus Biologicals, product number NBP1-44382 or R&D Systems, product number 8024-AK-025) was purchased at a stock concentration of 0.5 mg/ml and buffer exchanged into PBS. Protein concentration used for labeling was 20 uM. Experiments were conducted independently with each of NDPK and ADK labeled with each kit (i.e., experiments were performed with lysine-labeled, cysteine-labeled, and His-labeled versions of each protein to confirm the site of labeling was not influencing detected interaction). Labeling kits were: Monolith Protein Labeling Kit RED-NETS (Amine Reactive; Product number MO-L001), Monolith Protein Labeling Kit RED-MALEIMIDE (Cysteine Reactive; Product number: MO-L004), and Monolith His-Tag Labeling Kit RED-tris-NTA (Product number: MO-L008). […] Concentration of labeled proteins ranged from 12 nM to 20 nM, as determined by MST quantification to obtain a fluorescence intensity of ˜350 from each capillary tube. […]

NDPK-A peptide 3 = molecular target: T13, NDPK-A peptide 3; assay: MST, His-tagged peptide; column head prints 'Binding Affinity (Ka)'
NDPK-A peptide 2 = molecular target: T14, NDPK-A peptide 2; assay: as above
NDPK-A peptide 8 = molecular target: T15, NDPK-A peptide 8; assay: as above

T16 sequence (P15531 other isoform, or with tags, fused parts or gaps limits assumed): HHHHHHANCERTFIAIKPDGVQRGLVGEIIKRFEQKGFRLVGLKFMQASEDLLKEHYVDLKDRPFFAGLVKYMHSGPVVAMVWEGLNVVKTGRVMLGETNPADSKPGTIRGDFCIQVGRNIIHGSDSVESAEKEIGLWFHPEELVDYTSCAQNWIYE
T17 sequence (P55263 2-362 limits assumed): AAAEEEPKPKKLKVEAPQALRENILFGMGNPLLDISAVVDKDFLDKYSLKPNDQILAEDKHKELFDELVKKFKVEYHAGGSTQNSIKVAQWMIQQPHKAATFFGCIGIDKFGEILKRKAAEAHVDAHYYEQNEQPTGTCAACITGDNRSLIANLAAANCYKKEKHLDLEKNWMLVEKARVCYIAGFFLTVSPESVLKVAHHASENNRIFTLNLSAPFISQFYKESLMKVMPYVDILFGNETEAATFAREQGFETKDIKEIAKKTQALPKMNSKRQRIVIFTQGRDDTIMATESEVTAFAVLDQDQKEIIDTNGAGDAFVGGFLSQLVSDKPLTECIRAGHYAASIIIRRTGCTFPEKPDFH

Binder | Kd [1] | Kd [2] | Kd [3] | Kd [4] | binding result (NDPK-A peptide 14) | binding result (NDPK-A peptide 9) | binding result (NDPK-A peptide 1) | binding result (NDPK-A peptide 15) | binding result (NDPK-A peptide 5) | binding result (NDPK-A peptide 12) | binding result (NDPK-A peptide 13) | binding result (NDPK-A peptide 10) | binding result (NDPK-A peptide 4) | binding result (NDPK-A peptide 6) | binding result (NDPK-A peptide 11) | binding result (NDPK-A peptide 7) | Kd [5] | Kd (NDPK-A peptide 3) | Kd (NDPK-A peptide 2) | Kd (NDPK-A peptide 8)
B1 | ~700 nM | ~7 nM |  |  |  |  |  |  |  |  |  |  |  |  |  |  |  |  |  | 
B2 |  |  | ~150 nM | 116 nM | no binding | no binding | no binding | no binding | no binding | no binding | no binding | no binding | no binding | no binding | no binding | no binding | ~1900 nM | 8980 nM | 15900 nM | 69.6 nM
